# Experimental data as given in PMC12024163, “Competitive Ligand-Induced Recruitment of Coactivators to Specific PPARα/δ/γ Ligand-Binding Domains Revealed by Dual-Emission FRET and X-Ray Diffraction of Cocrystals” (Antioxidants, 2025).
# No end group written: not given here. *: point of attachment. Biotin = O=C1N[C@H]2[C@H](CS[C@H]2CCCCC(=O)*)N1
# T1: Human PPARδ-LBD (amino acids 170–441), amino-terminal His-tagged (human, UniProt Q03181 170-441)
# T1 construct: Form used in the FRET assays; also called hPPARδ-LBD; PPARβ; source: Rosetta (DE3) pLysS cells, pET28a, purified (TALON, HiTrap Q, Superdex 75); not shown: His tag, N-terminal, kept
# T1 sequence (looked up): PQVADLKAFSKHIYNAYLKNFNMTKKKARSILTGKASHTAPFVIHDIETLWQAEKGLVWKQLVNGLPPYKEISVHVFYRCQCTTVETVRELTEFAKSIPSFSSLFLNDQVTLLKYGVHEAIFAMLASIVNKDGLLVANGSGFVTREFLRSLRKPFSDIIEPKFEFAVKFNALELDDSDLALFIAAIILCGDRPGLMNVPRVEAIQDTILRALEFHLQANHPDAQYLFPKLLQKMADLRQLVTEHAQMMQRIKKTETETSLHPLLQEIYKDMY
# T2: Human PPARα-LBD (amino acids 200–468), amino-terminal His-tagged (human, UniProt Q07869 200-468)
# T2 construct: Form used in the FRET assays; detected through the His tag with a Tb cryptate anti-6×His antibody; Routine preparations hold intrinsic fatty acids; also called hPPARα-LBD; NR1C1; source: Rosetta (DE3) pLysS cells, pET28a, purified (TALON, HiTrap Q, Superdex 75); not shown: His tag, N-terminal, kept
# T2 sequence (looked up): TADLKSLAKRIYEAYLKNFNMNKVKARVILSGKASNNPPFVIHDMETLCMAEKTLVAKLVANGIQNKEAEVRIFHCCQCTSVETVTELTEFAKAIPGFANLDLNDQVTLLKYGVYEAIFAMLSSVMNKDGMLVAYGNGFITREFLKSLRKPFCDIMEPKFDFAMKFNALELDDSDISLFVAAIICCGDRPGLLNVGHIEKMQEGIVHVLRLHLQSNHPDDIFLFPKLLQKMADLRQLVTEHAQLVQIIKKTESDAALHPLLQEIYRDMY
# T3: Human PPARγ-LBD (amino acids 203–477 in isoform 1), amino-terminal His-tagged (human, UniProt P37231-2 203-477)
# T3 construct: numbers count on: isoform 1; Form used in the FRET assays; mainly prepared as apo (unliganded) form; also called hPPARγ-LBD; NR1C3; source: Rosetta (DE3) pLysS cells, pET28a, purified (TALON, HiTrap Q, Superdex 75); not shown: His tag, N-terminal, kept
# T3 sequence (looked up): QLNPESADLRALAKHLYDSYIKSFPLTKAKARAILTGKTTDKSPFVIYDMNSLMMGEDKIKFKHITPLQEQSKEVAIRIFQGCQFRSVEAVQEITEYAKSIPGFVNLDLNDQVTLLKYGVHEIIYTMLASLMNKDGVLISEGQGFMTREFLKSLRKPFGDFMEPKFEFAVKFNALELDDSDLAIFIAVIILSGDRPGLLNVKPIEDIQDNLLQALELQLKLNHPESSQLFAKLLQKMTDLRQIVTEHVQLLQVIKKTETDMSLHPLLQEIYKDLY
# Legend:
# Settings in all cases: both partners purified
# [1] = molecular target: T1, Human PPARδ-LBD (amino acids 170–441), …; assay: FRET or BRET; dual-emission TR-FRET: ULight-corepressor peptide and FITC-coactivator peptide together in one well with the His-tagged LBD and Tb anti-6×His antibody; agonist titrated from vehicle (pemafibrate, seladelpar or pioglitazone); buffer A, room temperature
# [2] = molecular target: T2, Human PPARα-LBD (amino acids 200–468), …; assay: FRET or BRET; single-emission TR-FRET (LANCE Ultra); His-tagged LBD (9.5 µL of 400 nM) with Tb cryptate anti-6×His antibody, biotin peptide (5 µL of 1 µM) with ULight-Streptavidin or FITC-Ahx peptide; buffer A (20 mM HEPES pH 7.4, 150 mM NaCl, 1 mM EDTA, 1 mM DTT, 0.005% Tween 20, 0.1% fatty acid-free BSA); room temperature, 2 h; without agonist (vehicle 1% DMSO)
# [3] = molecular target: T3, Human PPARγ-LBD (amino acids 203–477 in …); assay: as above
# [4] = molecular target: T2, Human PPARα-LBD (amino acids 200–468), …; assay: FRET or BRET; dual-emission TR-FRET: a FITC-coactivator peptide and a ULight-coactivator peptide together in one well with the His-tagged LBD and Tb anti-6×His antibody; agonist titrated (pemafibrate, seladelpar or pioglitazone); buffer A, room temperature
# [5] = molecular target: T3, Human PPARγ-LBD (amino acids 203–477 in …); assay: as above
# [6] = molecular target: T1, Human PPARδ-LBD (amino acids 170–441), …; assay: as above
# [7] = molecular target: T2, Human PPARα-LBD (amino acids 200–468), …; assay: FRET or BRET; single-emission TR-FRET as a1, with the agonist titrated (pemafibrate for PPARα-LBD, seladelpar for PPARδ-LBD, pioglitazone for PPARγ-LBD); signal ratios normalised to 1% DMSO
# [8] = molecular target: T3, Human PPARγ-LBD (amino acids 203–477 in …); assay: as above
# [9] = molecular target: T1, Human PPARδ-LBD (amino acids 170–441), …; assay: as above
# [10] = molecular target: T3, Human PPARγ-LBD (amino acids 203–477 in …); assay: FRET or BRET; dual-emission TR-FRET: ULight-corepressor peptide and FITC-coactivator peptide together in one well with the His-tagged LBD and Tb anti-6×His antibody; agonist titrated from vehicle (pemafibrate, seladelpar or pioglitazone); buffer A, room temperature
binder,measurement,setting,value
"Biotin-EHASTNMGLEAIIRKALMGKY (NCoR2 (nuclear receptor corepressor 2, SMRT), human, AAs 2321–2341, LXXXIXXXL motif LEAIIRKAL; also called ULight-NCoR2; SMRT; source: synthetic peptide (GenScript)) [NCoR2 corepressor peptide, biotin-labeled (AAs 2321–2341)]",binding result,[1],binds
same,binding result,[2],binds
same,binding result,[3],binds
"Biotin-SGNLVPDAASKHKQLSELLRGGSGS (also called ULight-CBP; source: synthetic peptide (GenScript)) [CBP coactivator peptide, biotin-labeled (AAs 56–80)]","maximal recruitment in dual-FRET with pemafibrate, that of FITC-CBP in the same well taken as 100",[4],431 FITC-CBP = 100
same,"maximal recruitment in dual-FRET with pemafibrate, that of FITC-TRAP in the same well taken as 100",[4],508 FITC-TRAP = 100
same,"maximal recruitment in dual-FRET with pioglitazone, that of FITC-CBP in the same well taken as 100",[5],237 FITC-CBP = 100
same,"maximal recruitment in dual-FRET with pioglitazone, that of FITC-TRAP in the same well taken as 100",[5],295 FITC-TRAP = 100
same,"maximal recruitment in dual-FRET with seladelpar, that of FITC-CBP in the same well taken as 100",[6],508 FITC-CBP = 100
same,"maximal recruitment in dual-FRET with seladelpar, that of FITC-TRAP in the same well taken as 100",[6],372 FITC-TRAP = 100
same,EC50 of pemafibrate (the ligand is titrated) for recruitment of the peptide,[7],60.9 nM
same,EC50 of pioglitazone (the ligand is titrated) for recruitment of the peptide,[8],637 nM
same,EC50 of seladelpar (the ligand is titrated) for recruitment of the peptide,[9],33.2 nM
"Biotin-EAEEPSLLKKLLLAPANTQ (also called ULight-PGC1α; source: synthetic peptide (GenScript)) [PGC1α coactivator peptide, biotin-labeled (AAs 137–155)]","maximal recruitment in dual-FRET with pemafibrate, that of FITC-CBP in the same well taken as 100",[4],108 FITC-CBP = 100
same,"maximal recruitment in dual-FRET with pemafibrate, that of FITC-TRAP in the same well taken as 100",[4],150 FITC-TRAP = 100
same,"maximal recruitment in dual-FRET with seladelpar, that of FITC-CBP in the same well taken as 100",[6],359 FITC-CBP = 100
same,"maximal recruitment in dual-FRET with seladelpar, that of FITC-TRAP in the same well taken as 100",[6],313 FITC-TRAP = 100
same,EC50 of pemafibrate (the ligand is titrated) for recruitment of the peptide,[7],82 nM
same,EC50 of seladelpar (the ligand is titrated) for recruitment of the peptide,[9],48.1 nM
"Biotin-CPSSHSSLTERHKILHRLLQEGSPS (also called ULight-SRC1; SRC-1 M2; source: synthetic peptide (GenScript)) [SRC1 coactivator peptide, biotin-labeled (AAs 676–700)]","maximal recruitment in dual-FRET with pemafibrate, that of FITC-CBP in the same well taken as 100",[4],115 FITC-CBP = 100
same,"maximal recruitment in dual-FRET with pemafibrate, that of FITC-TRAP in the same well taken as 100",[4],77 FITC-TRAP = 100
same,"maximal recruitment in dual-FRET with pioglitazone, that of FITC-CBP in the same well taken as 100",[5],52 FITC-CBP = 100
same,"maximal recruitment in dual-FRET with pioglitazone, that of FITC-TRAP in the same well taken as 100",[5],57.1 FITC-TRAP = 100
same,"maximal recruitment in dual-FRET with seladelpar, that of FITC-CBP in the same well taken as 100",[6],156 FITC-CBP = 100
same,"maximal recruitment in dual-FRET with seladelpar, that of FITC-TRAP in the same well taken as 100",[6],55.5 FITC-TRAP = 100
same,EC50 of pemafibrate (the ligand is titrated) for recruitment of the peptide,[7],87.8 nM
same,EC50 of pioglitazone (the ligand is titrated) for recruitment of the peptide,[8],2110 nM
same,EC50 of seladelpar (the ligand is titrated) for recruitment of the peptide,[9],53.5 nM
"Biotin-ADPASNLGLEDIIRKALMGSF (NCoR1 (nuclear receptor corepressor 1), human, AAs 2255–2275, LXXXIXXXL motif LEDIIRKAL; also called ULight-NCoR1; N-CoR ID2; source: synthetic peptide (GenScript)) [NCoR1 corepressor peptide, biotin-labeled (AAs 2255–2275)]",binding result,[10],binds
same,binding result,[1],binds
same,binding result,[2],binds
"Biotin-PVSSMAGNTKNHPMLMNLLKDNPAQ (thyroid hormone receptor-associated protein 220 (TRAP220), human, AAs 631–655, LXXLL motif LMNLL; also called ULight-TRAP220; ULight-TRAP; source: synthetic peptide (GenScript)) [TRAP220 coactivator peptide, biotin-labeled (AAs 631–655)]","maximal recruitment in dual-FRET with pemafibrate, that of FITC-CBP in the same well taken as 100",[4],63.3 FITC-CBP = 100
same,"maximal recruitment in dual-FRET with pemafibrate, that of FITC-TRAP in the same well taken as 100",[4],75.8 FITC-TRAP = 100
same,"maximal recruitment in dual-FRET with pioglitazone, that of FITC-CBP in the same well taken as 100",[5],107 FITC-CBP = 100
same,"maximal recruitment in dual-FRET with pioglitazone, that of FITC-TRAP in the same well taken as 100",[5],65.8 FITC-TRAP = 100
same,"maximal recruitment in dual-FRET with seladelpar, that of FITC-CBP in the same well taken as 100",[6],402 FITC-CBP = 100
same,"maximal recruitment in dual-FRET with seladelpar, that of FITC-TRAP in the same well taken as 100",[6],108 FITC-TRAP = 100
same,EC50 of pemafibrate (the ligand is titrated) for recruitment of the peptide,[7],130 nM
same,EC50 of pioglitazone (the ligand is titrated) for recruitment of the peptide,[8],1910 nM
same,EC50 of seladelpar (the ligand is titrated) for recruitment of the peptide,[9],54.8 nM
